# According to patent US20220227846A1:
# Legend:
# Assay in all cases: SPR, calculated KD (Qdat software)
# Aβ42 fibrils = Aβ42 fibrils (UniProt P05067)
# [1] = target: Aβ42 oligomers (ADDLs/globulomers) (UniProt P05067)
# [2] = target: C-terminal biotinylated Aβ42 ADDLs/globulomers (UniProt P05067)
# [3] = target: C-terminal biotinylated Aβ42 monomers (UniProt P05067)
# [4] = target: N-terminal biotinylated Aβ42 monomers (UniProt P05067)
# Sequence of N-terminal biotinylated Aβ42 monomers (P05067 672-713 limits assumed): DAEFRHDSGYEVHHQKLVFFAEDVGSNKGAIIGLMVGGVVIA
# Sequence of C-terminal biotinylated Aβ42 ADDLs/globulomers (P05067 672-713 limits assumed): as above
# Sequence of Aβ42 fibrils (P05067 672-713 limits assumed): as above
# Sequence of C-terminal biotinylated Aβ42 monomers (P05067 672-713 limits assumed): as above
# Sequence of Aβ42 oligomers (ADDLs/globulomers) (P05067 672-713 limits assumed): as above
substance,measurement,setting,value
"6E10 (mouse mAb to Aβ amino acids 1-16; BioLegend, San Diego, CA) (antibody)",Kd,Aβ42 fibrils,56 nM
same,Kd,[1],69 nM
same,Kd,[2],50 nM
same,Kd,[3],47 nM
same,Kd,[4],158 nM
